In publication PMC12416549 (2024):
Substitutions are numbered along the chain they refer to. Names may count otherwise.

T1: TNFR1 (Homo sapiens, UniProt P19438)
T1 chain: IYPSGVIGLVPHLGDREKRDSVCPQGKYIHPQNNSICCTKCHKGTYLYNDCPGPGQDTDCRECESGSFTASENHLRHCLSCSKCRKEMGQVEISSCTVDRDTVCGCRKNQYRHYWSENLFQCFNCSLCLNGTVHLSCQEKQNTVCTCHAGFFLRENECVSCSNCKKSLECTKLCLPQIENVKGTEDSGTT

B1: R14L (designed binder)
chain: MTLQELLREEALRLAEAEAFRYALELLAEKFPEQKEYLLDLAEEIESQIRSLSGVDVEDVRKFLDKEWAWVKELLAEHPAELAEVEAARAARLAELRAEVEAKVAA
B2: L38G (designed binder)
chain: B1 chain with L14R, L38G
B3: K35A (designed binder)
chain: B1 chain with L14R, K35A
B4: F20W (designed binder)
chain: B1 chain with L14R, F20W
B5: E16V (designed binder)
chain: B1 chain with L14R, E16V
B6: A28R (designed binder)
chain: B1 chain with L14R, A28R
B7: E73A (designed binder)
chain: B1 chain with L14R, E73A
B8: L7W (designed binder)
chain: B1 chain with L7W, L14R
B9: L6G (designed binder)
chain: B1 chain with L6G, L14R
B10: A102F (designed binder)
chain: B1 chain with L14R, A102F
B11: P79D (designed binder)
chain: B1 chain with L14R, P79D
B12: E16R (designed binder)
chain: B1 chain with L14R, E16R
B13: S53C (designed binder)
chain: B1 chain with L14R, S53C
B14: I45M (designed binder)
chain: B1 chain with L14R, I45M
B15: E29T (designed binder)
chain: B1 chain with L14R, E29T
B16: A69P (designed binder)
chain: B1 chain with L14R, A69P
B17: E43P (designed binder)
chain: B1 chain with L14R, E43P
B18: F31N (designed binder)
chain: B1 chain with L14R, F31N
B19: E99D (designed binder)
chain: B1 chain with L14R, E99D
B20: A69Y (designed binder)
chain: B1 chain with L14R, A69Y
B21: V71Y (designed binder)
chain: B1 chain with L14R, V71Y
B22: E95R (designed binder)
chain: B1 chain with L14R, E95R
B23: D59H (designed binder)
chain: B1 chain with L14R, D59H
B24: A11V (designed binder)
chain: B1 chain with A11V, L14R
B25: A87I (designed binder)
chain: B1 chain with L14R, A87I
B26: F63H (designed binder)
chain: B1 chain with L14R, F63H
B27: R92S (designed binder)
chain: B1 chain with L14R, R92S
B28: L82K (designed binder)
chain: B1 chain with L14R, L82K
B29: K66Q (designed binder)
chain: B1 chain with L14R, K66Q
B30: E46L (designed binder)
chain: B1 chain with L14R, E46L
B31: Y37C (designed binder)
chain: B1 chain with L14R, Y37C
B32: L6M (designed binder)
chain: B1 chain with L6M, L14R
B33: A76Q (designed binder)
chain: B1 chain with L14R, A76Q
B34: A91C (designed binder)
chain: B1 chain with L14R, A91C
B35: A88G (designed binder)
chain: B1 chain with L14R, A88G
B36: A11P (designed binder)
chain: B1 chain with A11P, L14R
B37: W68H (designed binder)
chain: B1 chain with L14R, W68H
B38: A83H (designed binder)
chain: B1 chain with L14R, A83H
B39: H78E (designed binder)
chain: B1 chain with L14R, H78E
B40: A88C (designed binder)
chain: B1 chain with L14R, A88C
B41: A42V (designed binder)
chain: B1 chain with L14R, A42V
B42: A23G (designed binder)
chain: B1 chain with L14R, A23G
B43: R14F (designed binder)
chain: B1 chain with L14F
B44: A106S (designed binder)
chain: B1 chain with L14R, A106S
B45: I45R (designed binder)
chain: B1 chain with L14R, I45R
B46: E16C (designed binder)
chain: B1 chain with L14R, E16C
B47: E86S (designed binder)
chain: B1 chain with L14R, E86S
B48: R92G (designed binder)
chain: B1 chain with L14R, R92G
B49: R13D (designed binder)
chain: B1 chain with R13D, L14R
B50: E84S (designed binder)
chain: B1 chain with L14R, E84S
B51: K72N (designed binder)
chain: B1 chain with L14R, K72N
B52: V71L (designed binder)
chain: B1 chain with L14R, V71L
B53: E18G (designed binder)
chain: B1 chain with L14R, E18G
B54: L3S (designed binder)
chain: B1 chain with L3S, L14R
B55: L26Y (designed binder)
chain: B1 chain with L14R, L26Y
B56: A106E (designed binder)
chain: B1 chain with L14R, A106E
B57: L82R (designed binder)
chain: B1 chain with L14R, L82R
B58: D56K (designed binder)
chain: B1 chain with L14R, D56K
B59: F20V (designed binder)
chain: B1 chain with L14R, F20V

Biological target: T1, TNFR1
Experiment: yeast display SC50

Binder	apparent Kd (screen)
B1	0.956 nM
B2	24.4 nM
B3	1.27 nM
B4	4.83 nM
B5	0.446 nM
B6	12.5 nM
B7	0.593 nM
B8	24.4 nM
B9	22.2 nM
B10	0.653 nM
B11	0.539 nM
B12	2.05 nM
B13	24.4 nM
B14	12.5 nM
B15	0.653 nM
B16	16.7 nM
B17	1.16 nM
B18	0.593 nM
B19	0.539 nM
B20	1.05 nM

Binder	apparent Kd (screen)
B21	2.48 nM
B22	0.593 nM
B23	0.869 nM
B24	0.49 nM
B25	0.869 nM
B26	6.43 nM
B27	0.653 nM
B28	2.48 nM
B29	0.653 nM
B30	0.539 nM
B31	3 nM
B32	1.86 nM
B33	0.446 nM
B34	0.593 nM
B35	0.79 nM
B36	2.25 nM
B37	2.73 nM
B38	0.539 nM
B39	0.653 nM
B40	0.653 nM

Binder	apparent Kd (screen)
B41	0.718 nM
B42	0.49 nM
B43	0.653 nM
B44	0.653 nM
B45	11.4 nM
B46	0.593 nM
B47	0.869 nM
B48	0.593 nM
B49	1.69 nM
B50	0.653 nM
B51	0.539 nM
B52	0.593 nM
B53	0.49 nM
B54	15.2 nM
B55	0.593 nM
B56	0.79 nM
B57	1.86 nM
B58	2.25 nM
B59	0.49 nM
